Assay results reported in publication PMC12585912.

What was measured:
His67 = His67 (UniProt position 67, ENPKMHNSEIS); assay: NMR; settings: 293 K per the general NMR methods, not restated for the pH titration, 150 mM ionic strength, not given for the titration ("All buffers were controlled to 150 mM ionic strength"), the standard NMR buffer is 20 mM Tris, 135 mM KCl, 15 mM NaCl, pH 7.3
His101 = His101 (UniProt position 101, RLRALHMKEHP); assay: NMR; settings: 293 K per the general NMR methods; not restated for the pH titration; 150 mM ionic strength; not given for the titration ("All buffers were controlled to 150 mM ionic strength"); the standard NMR buffer is 20 mM Tris, 135 mM KCl, 15 mM NaCl, pH 7.3; bound to specific FGF4 dsDNA (13-mer containing the TTGT motif)

Transcription factor SOX-2, extended DNA-binding (HMG) domain, Sox2 31-127 (Homo sapiens), sequence (chain, as listed by the source): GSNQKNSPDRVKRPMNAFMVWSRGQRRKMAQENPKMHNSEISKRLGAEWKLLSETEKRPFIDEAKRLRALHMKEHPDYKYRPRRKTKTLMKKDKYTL

## Transcription factor SOX-2, extended DNA-binding (HMG) domain, Sox2 31-127 (Homo sapiens)
His67; bound to specific FGF4 dsDNA (13-mer containing the TTGT motif)
  pKa: 6.25
His67; free Sox2 31-127, folded
  pKa: 5.76
His101
  pKa: 4.1
